Laboratory results reported in article PMC8888643.

Legend:
[1] = biological target: SARS-CoV-2 main protease with the mutations E290A and R298A (MPro^M) (SARS-CoV-2); assay: AUC; sedimentation velocity, 50,000 rpm, 25 °C, buffer A; MPro^M at 18-90 µM, without inhibitor
[2] = biological target: SARS-CoV-2 main protease with the mutations E290A and R298A (MPro^M) (SARS-CoV-2); assay: AUC; sedimentation velocity, 50,000 rpm, 25 °C, buffer B with 0.1% DMSO; MPro^M at 6-7 µM with GC376 at 1-50 µM
[3] = biological target: SARS-CoV-2 main protease with the mutations E290A and R298A (MPro^M) (SARS-CoV-2); assay: not stated; 10 µM MPro^M with a 10-fold molar excess of GC376 (100 µM); told with the CD spectra
[4] = biological target: SARS-CoV-2 main protease with the mutations E290A and R298A (MPro^M) (SARS-CoV-2); assay: enzyme kinetics (calculated from rate constants); dimer to monomers (K1); MPro^M, calculated from the slope of rate against [Mo]^2 (Eq. 3) and from k3/Ks found with GC376 (Eq. 6); buffer B, 28 °C

For “SARS-CoV-2 main protease with the mutations E290A and R298A (MPro^M) (enzyme)”, which Kd [1] is on record?
Its Kd is over 0.09 mM.

And the free monomer concentration [M] at [Mo] 10 µM and GC376 10 µM [2]?
The free monomer concentration [M] at [Mo] 10 µM and GC376 10 µM was 5e-06 M.

What about the stoichiometry N [2] of the same substance?
Its stoichiometry N is 2.

And the percent dimeric with 10-fold molar excess of GC376 [3]?
The percent dimeric with 10-fold molar excess of GC376 was 90%.

What about the Kd [4] of the same substance?
Its Kd is 6.6 mM.
